Assay results published in US20210246195A1 (CZ BIOHUB SF, published 2021).
Residue numbers refer to the chain shown, from its start.

B1: PA13P1E10 (antibody, human IgG1, V domains shown)
VH: QVQLVDSGGGVVQPGKSLRLSCVGSGFTFRTFGIHWVRQAPGKGLEWVAVISNDGGNSASADSVKGRFTTSRDNSKNTVYLQINSLRPEDTAIYYCAKVLDYSAFSYYYGMDVWGQGTTVIVSS
VL: EIVLTQSPGTLSLSPGERGTLSCRTSQPISRAHLAWYQHKAGQAPRLLIYGSTERAAGIPERFSGGGSGSDFTLTISSLEAEDFAVYYCQHYGRSPPYTFGQGTKVEIK
notes: human IgG1, kappa
B2: PA12P3D08 (antibody, human IgG1, V domains shown)
VH: QVQLVESGGGVVQPGKSLRLSCAASAFTFRRFAMHWVRQAPGKGLEWVAVISDNGLREDYEDSVKGRFTISRDNSQNTLYLQMNGLRAEDTAVYYCAKVLDYNEYSLYFGMDVWGQGTTVTVSS
VL: EVVLTQSPATLSLSPGERATLSCRTSQAISNNFLAWYQQRPGQPPRLLIYASSRRATDTPDRFTGSGSGTDFTLTITRLEPEDFAVYFCQYYSDSPPYTFGPGTKLEIK
notes: human IgG1, kappa
B3: PA12P1C07 (antibody, human IgG1, V domains shown)
VH: B2 VH with V5E, A23V, R30K, Q76K, N77D, G85S, A88P, V93I, N103S, T121L
VL: EIVLTQSPAILSLSPGDRATLSCRTSQTVNSNFLAWYQQKPGQAPRLLIYGASRRAIDIPDRFTGSGSGTEFTLTIARLEPEDFAVYSCQHYSDSPPYTFGQGTKLEIK
notes: human IgG1, kappa
B4: PA12P3F10 (antibody, human IgG1, V domains shown)
VH: QVQLVESGGGVVQPGGSLTLSCVGSGFTFSHYAIHWVRQAPGKGLEWVAVISNVGTTRDYADSLKGRLTISRENSQSTVFLQMNSLRADDTAIYYCAKVLDYSEFHYYYGLDVWGQGTAVAVSS
VL: EIVLTQSPGTLSLSPGQRVTLSCRVSQAIPTMYVAWYQQRPGQAPRLLIYGTSSRATGIPDRFSGGGSGTDFTLTINRLEPEDIAVYYCQHYSNSPPYTFGPGTKLEIK
notes: human IgG1, kappa
B5: PA13P3G09 (antibody, human IgG1, V domains shown)
VH: QEQLVESGGGVVHPGGSLRLSCVASAFTFNRFGMHWVRQAPGKGLEWVAVISNDGRSQDYADSVKGRFIISRDNSKNTLYLQLNSLRFEDTAVYYCAKVLDYSIFYYYFGLDVWGQGTTVTVSS
VL: EVVLTQSPGSLSLSPGERATLSCRAGQSLSSKFLAWYQHKPGQAPRLLIYGASTRATGVPDRFSGSGSGTDFSLIISRVEPEDFAVYYCQHYGDSPPYTFGQGTKVEMK
notes: human IgG1, kappa
B6: PA13P1H08 variant rCDR1-N (antibody, human IgG1, V domains shown)
VH: QVQLVNSGGGVVQPGRSLRLSCVASGFTFSSYGIHWVRQAPGKGLEWVAVISNDGEKSESADSVKGRFTPSRDNSKNTVYLQMNNLRVEDTAVYYCAKVLDYSRYSYYYGMDVWGQGTTVIVSS
VL: EIVLTQSPGTLSLSPGGRGTLSCRTSQTINNAHLAWYQHKPGQAPRLLIYGSSERATGVPDRFSGSGSGSDFTLTISSLEAEDFAVYYCQHYGRSPPYTFGPGTKLDIK
notes: human IgG1, kappa; also called heavy chain CDR1 reverted
B7: PA13P1H08 variant rCDR2-N (antibody, human IgG1, V domains shown)
VH: B6 VH with S31T, Y32F, N53Y, E56S, K57N, S58K
VL: B6 VL
notes: human IgG1, kappa; also called heavy chain CDR2 reverted
B8: PA12P4D02 (antibody, human IgG1, V domains shown)
VH: QVQLVESGGGVVQPGRSLRLSCAASGFTFSSYAMHWVRQAPGKGREWVAALSYDGSSTYYADSVKGRLTISRDNSKNTLYLQMNSLRAEDTAVYFCTRVPYGEGRAANDYWGQGTLVTVSS
VL: DIQMTQSPSTLSASVGDRVTITCRASQSIGSWLAWYQQKPGKAPKLLIYKASNIESGVPSRFSGSGSGTEFTLTISSLQPDDFATYYCQHYNTYSRSFGGGTEVAIK
notes: human IgG1
B9: PA12P1D02 (antibody, human IgG1, V domains shown)
VH: QLQLQQWGAGLVKPSETLSLTCTVSGGSLSGHFWSWIRQSPEKGLEWIGEINHSGRKNYNPSLMIRVDISIDTSKNQFSMRMTSLTAADSAVYYCARVGRNIVDTDDAFDVWGRGTLVTVSS
VL: EIVLTQSPGTLSLSPGDTVTLSCRASQTIDSIYLAWYQQRPGQAPRLLIYGASTRATGTPDRFSGGGSGTDFTLTITRLEPEDFAVYFCQQYGTSPPITFGRGTRLEIK
notes: human IgG1
B10: PA12P1G11 (antibody, human IgG1, V domains shown)
VH: QVQLVQSGAEVRKPGSSVKVSCKASGGTFSNNPITWVRQAPGQGLEWMGWIIPIFNTTNYAQKFQGRVTITADESTSTAYMELSSLKSEDTALFYCARDRAHAYCNNGVCYTTDAFDVWGQGTLVTVSS
VL: ETVLTQSPATLSLSPGERATLSCRASQSVGRYLAWYQHKPGQAPRLLIYDASNRATGIPARFSGSGSGTDFTLTISSLEPEDSAVYYCQQGTDWLTFGGGTKVEIK
notes: human IgG1
B11: PA11P1D11 (antibody, human IgG1, V domains shown)
VH: QVELVESGGGVVQPGRSLRLSCVASGFTFSDYGMHWVRQAPGKGLEWVAVIWFDGSSKYYADSVKGRFTISRDDSKNTVFMQMNNVRVEDTAVYYCAREQWLGTEYFQNWGQGTLVTVSS
VL: EIVMTQSPATLSLFPGERATLSCRASQSVAGNLAWYQQKPGQAPRLLIYEASTRATDIPARFSGSGSETEFTLTISSLQSEDFAVYYCQQYKKWLITFGQGTRLEIK
notes: human IgG1
B12: PA13P1H03 (antibody, human IgG1, V domains shown)
VH: EVQLVESGGGLVQPGGSLRLSCAASGFTFRNYWMNWVRQAPGKGLVWVSRINSEGSSTSYADPVKGRFTISRDNAKDTLYLQMDSLRAEDSAVYYCARIFNGYIHVGRDYWGQGTRVTVSS
VL: DIQMTQSPSTLSASIGDRVTITCRASESISNWLAWFQQKPGKAPKLLIYKASNLESGVPSRFSGSGSGTEFTLTISSLQPDDFATYYCQQYNSNSQTFGQGTKLDLK
notes: human IgG1
B13: PA12P3E09 (antibody, human IgG1, V domains shown)
VH: QVQLVQSGAEVKKPGSSVKVSCKASGGTFSSYSISWVRQAPGQGLEWMGGIIPIFGSGSYAQKFQGRVTITADKSTSTAYMELSSLSSDDTAVYYCARGESPSNFVYYGMDVWGQGTTVTVSS
VL: DIVLTQSPLSLPVTPGEPASISCRSSHSLLHSNGYNHLDWYLQKPGQSPQLLIYLGSNRASGVPDRFSGSGSGTDFTLKISRVEAEDVGVYYCMQALLVTFGPGTKVDIK
notes: human IgG1
B14: PA12P3E11 (antibody, human IgG1, V domains shown)
VH: QVQLVESGGGLVTPGGSLRLSCTVSGFTLSDYYMSWIRQAPGKGLDWLSYISGSGDNKNYADSVRGRFTISRDNSKNSLYLQMNSLRAEDTAVYYCAREFPSGGYSPGVVLWGQGTLVTVSS
VL: NFVLTQPHSVSESPGKTVTISCARSSGSIAGSFVQWYQQRPGSSPTTVIYEDTRRPSGVPDRFSGSIDSSSNSASLTISGLKTEDEADYYCQSYDSTNPWVFGGGTKLTVL
notes: human IgG1
B15: PA11P1G10 (antibody, human IgG1, V domains shown)
VH: QVQLQESGPGLVKPSQTLSLTCTVSGGSINTGAYYWSWIRQHPGKGLEWIGYIYYSGSTYYNPSLKSRVTISKDTSKNQFSLRLTSVTAADTAVYYCVREKLTGAPDNWGQGTLVAVSS
VL: DIQMTQSPSSLSASVGDRVTITCRASQGVSNYLAWFHQKPGKAPKSLIYAASTLHDGVPSSFSGSGSGTEFTLTISDLQPEHFGTYYCEQYNSYPFTFGPGTTVDFK
notes: human IgG1

molecular target: T1, Ara h 3 (purified natural peanut allergen) (Arachis hypogaea); assay: BLI, antibody on anti-human IgG Fc sensors, Ara h 3 as analyte, top 32 nM
T1 construct: mature; bought natural protein; also called natural Ara h 3; NA-AH3-1
T1 sequence (main, as listed by the source): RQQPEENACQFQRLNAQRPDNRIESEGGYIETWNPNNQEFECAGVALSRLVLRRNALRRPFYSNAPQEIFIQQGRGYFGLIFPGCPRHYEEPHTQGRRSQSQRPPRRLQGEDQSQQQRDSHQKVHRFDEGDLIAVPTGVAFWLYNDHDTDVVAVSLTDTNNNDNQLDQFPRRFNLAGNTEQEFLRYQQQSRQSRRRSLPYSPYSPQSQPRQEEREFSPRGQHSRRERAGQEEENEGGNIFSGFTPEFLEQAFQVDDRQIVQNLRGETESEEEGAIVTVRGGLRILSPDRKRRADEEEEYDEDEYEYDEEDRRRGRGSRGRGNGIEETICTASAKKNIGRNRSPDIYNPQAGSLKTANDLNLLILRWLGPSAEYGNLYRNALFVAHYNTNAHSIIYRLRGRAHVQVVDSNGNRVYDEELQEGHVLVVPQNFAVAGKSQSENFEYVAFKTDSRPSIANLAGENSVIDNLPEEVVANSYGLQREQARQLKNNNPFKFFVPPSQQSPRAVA

Row | Kd | Binder
1 | 5 nM | B1
2 | 22 nM | B2
3 | 11 nM | B3
4 | 11 nM | B4
5 | 19 nM | B5

molecular target: T2, BSA (UniProt P02769 25-607); assay: indirect ELISA, OD heat map
T2 construct: also called bovine serum albumin; immobilized BSA
T2 sequence (P02769 25-607 limits assumed): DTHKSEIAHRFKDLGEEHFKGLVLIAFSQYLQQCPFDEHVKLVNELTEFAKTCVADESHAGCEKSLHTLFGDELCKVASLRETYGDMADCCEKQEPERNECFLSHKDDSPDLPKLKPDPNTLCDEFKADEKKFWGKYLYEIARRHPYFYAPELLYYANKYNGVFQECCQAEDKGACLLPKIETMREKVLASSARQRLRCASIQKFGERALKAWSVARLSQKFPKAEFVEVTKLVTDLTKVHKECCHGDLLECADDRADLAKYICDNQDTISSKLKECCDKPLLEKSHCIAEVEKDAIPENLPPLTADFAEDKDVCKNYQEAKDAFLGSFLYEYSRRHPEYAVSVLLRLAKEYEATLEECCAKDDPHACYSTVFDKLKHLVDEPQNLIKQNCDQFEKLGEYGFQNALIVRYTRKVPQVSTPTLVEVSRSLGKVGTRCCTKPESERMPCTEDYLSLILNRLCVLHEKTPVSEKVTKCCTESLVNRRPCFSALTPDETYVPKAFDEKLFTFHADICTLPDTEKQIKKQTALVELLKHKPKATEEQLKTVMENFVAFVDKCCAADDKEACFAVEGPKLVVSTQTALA

Row | binding result | Binder
6 | no binding (tested: 2 ng/µL) | B1
7 | no binding (tested: 2 ng/µL) | B6
8 | no binding (tested: 2 ng/µL) | B7
9 | no binding (tested: 2 ng/µL) | B2
10 | no binding (tested: 2 ng/µL) | B3
11 | no binding (tested: 2 ng/µL) | B4
12 | no binding (tested: 2 ng/µL) | B5

molecular target: T2, BSA; assay: indirect ELISA heat map, hIgG subtracted

Row | binding result | Binder
13 | no binding (tested: 2 ng/µL) | B8
14 | no binding (tested: 2 ng/µL) | B9
15 | no binding (tested: 2 ng/µL) | B10
16 | no binding (tested: 2 ng/µL) | B11
17 | no binding (tested: 2 ng/µL) | B12
18 | no binding (tested: 2 ng/µL) | B13
19 | no binding (tested: 2 ng/µL) | B14
20 | no binding (tested: 2 ng/µL) | B15

molecular target: T1, Ara h 3 (purified natural peanut …); assay: BLI, antibody on anti-human IgG Fc sensors, Ara h 3 as analyte, top 16 nM

Row | Kd | Binder
21 | 0.5 nM | B6
22 | 0.0042 nM | B7
